PMC2190570
Several values for one entry are separate records, joined by “and”; a condition that tells them apart may be missing. Equal entries are not always repeated. Blank lines part the entries; values can stand above or below the molecule they belong to.

Assays:
[1] = target: lamin B1Δrod mutant (human) (UniProt P20700); test: binding to an immobilised lamin matrix with urea step elution
[2] = target: wild-type lamin B1 (human) (UniProt P20700); test: as above
[3] = target: lamin B1Δrod mutant (human) (UniProt P20700); test: cross-linking
[4] = target: T1, wild-type lamin B1 (human), P20700; test: cross-linking; conditions: remark: other sources report otherwise
T1 chain: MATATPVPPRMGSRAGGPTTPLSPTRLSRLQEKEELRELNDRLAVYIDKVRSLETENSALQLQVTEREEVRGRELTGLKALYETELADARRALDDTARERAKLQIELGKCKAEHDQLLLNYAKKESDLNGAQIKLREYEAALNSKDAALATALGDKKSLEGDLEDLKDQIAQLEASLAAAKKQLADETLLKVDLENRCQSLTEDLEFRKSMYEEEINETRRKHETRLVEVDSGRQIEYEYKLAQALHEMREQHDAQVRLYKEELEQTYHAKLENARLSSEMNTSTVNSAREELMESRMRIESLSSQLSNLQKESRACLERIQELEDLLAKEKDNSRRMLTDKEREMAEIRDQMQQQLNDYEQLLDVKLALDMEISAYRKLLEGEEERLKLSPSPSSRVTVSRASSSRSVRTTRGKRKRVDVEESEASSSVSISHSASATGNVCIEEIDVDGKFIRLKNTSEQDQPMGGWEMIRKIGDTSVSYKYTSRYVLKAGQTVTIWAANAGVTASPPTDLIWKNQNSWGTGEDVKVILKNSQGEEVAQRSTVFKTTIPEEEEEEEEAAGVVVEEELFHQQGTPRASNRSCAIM

[5] = target: T1, wild-type lamin B1 (human), P20700; test: binding to an immobilised lamin matrix with urea step elution; conditions: remark: other sources report otherwise

Molecule: lamin C (from UniProt P02545-2 1-572) (natural protein)
- urea concentration at which elution began [2]: 3 M
- urea concentration at which the majority eluted [2]: 5 to 7 M
- urea concentration at which elution began [1]: 0.5 M
- urea concentration at which the majority eluted [1]: 2 to 3 M

Molecule: lamin A (from UniProt P02545 1-646) (natural protein)
- urea concentration at which the majority eluted [2]: 7 M
- urea concentration at which the majority eluted [1]: 2 M and 4 M

B1: wild-type lamin B1, P20700 1-586 (natural protein)
chain: T1 chain
- stoichiometry N [4]: 2
- urea concentration at which most protein eluted [5]: 7 M and 4 M

Continued, values first:

- urea concentration at which most protein eluted [1]: 4 M and 7 M
Molecule: wild-type lamin B1 (from UniProt P20700 1-586) (natural protein)

- stoichiometry N [3]: 2
Molecule: lamin B1Δrod mutant (from UniProt P20700 1-69; P20700 340-586) (natural protein)
